# T1: α1antichymotrypsin (ACT) (human, UniProt P01011 24-423)
# T1 construct: Used in excess in the incubation with PZ-N PSA
# T1 sequence (looked up): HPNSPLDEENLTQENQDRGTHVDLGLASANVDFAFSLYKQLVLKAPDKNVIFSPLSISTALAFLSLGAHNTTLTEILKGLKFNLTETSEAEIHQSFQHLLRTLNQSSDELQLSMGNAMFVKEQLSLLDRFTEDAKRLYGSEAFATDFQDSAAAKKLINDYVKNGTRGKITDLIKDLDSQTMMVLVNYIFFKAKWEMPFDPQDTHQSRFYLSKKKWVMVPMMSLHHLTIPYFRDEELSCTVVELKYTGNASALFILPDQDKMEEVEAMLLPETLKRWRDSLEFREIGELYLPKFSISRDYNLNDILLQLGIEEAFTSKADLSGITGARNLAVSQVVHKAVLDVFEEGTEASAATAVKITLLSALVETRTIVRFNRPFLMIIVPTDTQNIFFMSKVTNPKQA
# B1: [-1]pPSA (enzyme)
# chain: not shown
# B2: [-4]pPSA (enzyme)
# chain: not shown
# notes: also called [-4]proPSA
# B3: [-2]pPSA (enzyme)
# chain: not shown
# notes: also called [-2]proPSA
# B4: [+5]PSA (enzyme)
# chain: not shown
# notes: I equated '[+5]PSA' with 'PSA clipped after Gly4'; also called PSA clipped after Gly4
# Target: T1, α1antichymotrypsin (ACT)
# Assay: incubation with excess ACT, HIC-HPLC, N-terminal sequencing
# Protocol: Figure 4: FIG. 4 is HIC-HPLC profile of the reaction mixture of PZ-N PSA incubated with excess ACT. […] Peak 2 is the residual excess active ACT. Peak 3 is the covalent PSA-ACT complex.
# The original profile of this PZ-N sample is seen in FIG. 1. […] Peak 2 is the residual excess active ACT remaining after incubation. […] The [−2]pPSA is a truncated form of pPSA which contains the last two amino acids of the 7 amino acid pro leader peptide. PPSA is expressed with a heptapeptide pro leader sequence consisting of APLILSR. Thus, the [−2] pPSA contains the serine-arginine dipeptide on the N-terminal isoleucine of mature PSA. The minor peak eluting at 12 min contains the [−4]pPSA. The retention time of [−4]pPSA has been reported previously (10).
row,binding result,Binder
1,no binding,B1
2,no binding,B2
3,no binding,B3
4,no binding,B4

# Reference: patent US6423503 (HYBRITECH, dated 2002)
